Article PMC12120876

Biological target: nLUC‐TaWUS‐like‐5D (wheat (Triticum aestivum))
Assay: split reporter

## SnRK1‐4B‐cLUC (natural protein)
  luminescence signal, fold over the other three pairs of co-infiltration samples: 5 fold
